# Measurements from paper PMC10531723.
# Assays:
# [1] = molecular target: Aβ42-CFP (human Aβ(1-42) fused to CFP) (human) (UniProt P05067); assay: FRET or BRET; acceptor photobleaching FRET (AB FRET) by confocal microscopy (Leica TCS SP5) of yeast cells co-expressing a CFP fusion (donor) and a YFP fusion (acceptor); acceptor bleached at 514 nm, 100% intensity; cells washed, air-dried on polylysine slides and mounted in …; three independent transformants, at least 100 cells each
# [2] = molecular target: IAPP-CFP (human IAPP fused in frame with cyan fluorescent protein) (human); assay: as above
# Sequence of IAPP-CFP (human IAPP fused in frame with cyan fluorescent protein) (human) (P10997 8-37): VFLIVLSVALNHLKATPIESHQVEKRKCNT
substance,measurement,setting,value
IAPP-YFP (human IAPP fused in frame with yellow fluorescent protein) (domain or fragment),FRET efficiency,[1],20%
same,FRET efficiency,[2],31%
